# According to patent US20240026407A1, “MODIFICATION OF SAPONINS” (GLAXOSMITHKLINE BIOLOGICALS SA, priority 2020, published 2024):
# B1: 262 (protein, listed as Modestobacter marinus)
# chain: MNPASSTRTDTMTDTTARTDSRLTDALAALSLEQKVQLLTGRDFWNTWPIEEIGLRRILVSDGPSGVRGEVWDERDPSLNLPSATALASAWDPDIARRYGAAAAVEARRKGVDVVLGPTINLHRSPLGGRHFEAFSEDPVLTAELAAAYVTGVQDNGVGATPKHYVANDFETDRFTVDVRADERTLRELYLLAFEKAVTEARAWLVMSAYNGINGATATENDLLETPLNSEWGFDGVVVSDWTAVRSLESARSSQDLVMPGPVGPWGDALVEAVRTGAIDESVVDRKVLRILTLAQRVGALEGSPAIDPVWVEDGVALAREAAVEGTVLLENRDELPWDATSLRKVAVIGNNAAAARTQGGGSATVLPEYTVSPLDGVRAALPDAEVSYSLGAVVQDGLVELPLAELTNPVTGGPGLRARFLTADGAELFGEDRRKSVLVYFGGDAPIAAAATYELTARWTPTESQTVRLGFALIGAAQLYVDGELLVESDLQPSGTDLGAAFMNPLTASAEVELVAGKPVDVRLVHDLSAKEGFAAHALFLQLGTEPAEVDEDALIAEAAEAAEAADVVLVVVGTNSIVESEGYDRESLSLPGRQDDLVRAVVAANPRTVVLVNAGAPVLLPWRDDVAALLLGWFGGQEFGNAVADVLLGVAEPGGRLPTTWPAAEADVPVLSCTPVDGVVEYTEGIHIGYRAWLRSGATPAYWFGSGQGYTCVELTGVEAPSRARPGEIVTVSVEVANRGERDGKQVVQVYAEKPDSTVDRPVRWLVGSAPVRVPAGQTAQVEVAVPTRYLAHWAGGWQYEPGVYRLRVGTTAVELPLETTLEVSA
# B2: 250 (protein, listed as Modestobacter marinus)
# chain: MTATTPSDPTALPLEQKVRLLSGQDFWSTPAVAEAGLSSVVLTDGPHGVRRQQGEFDQIGLLESVPATCFPPAVAVGSSWDPEVAERIGAAVGVEARAIGVPVVLGPGVNIKRSPLCGRNFEYYSEDPLLAGVLGAAHVRGQQGEGVGASVKHFAANNQETQRMQVSADVDERTLREVYLPAFERVVTESRPATVMCAYNKVNGVYASQHRWLLTEVLREEWGFRGAVVSDWGAVDDRVAALEAGLDLQMPGDSGAGNALVVEAVRAGVLDEAVVDRSVRRVAALAGLVAEPTAGFDVEAHHALARELAAGCAVLLKNDGGTLPLTAGTRITVVGEFARTPRFQGGGSSHVNATRVDDALTALQGAVEVTFAPGFTLDGSGDAAALREEAVAAARGAEVTVVFAGLAEADESEGFDRTTLDLPAGQVDLIRAVAAVSLRTVVVLSSGSVVSLEGWHDDVDAVLAGFLLGQAGGGALADLLTGAVDPSGRLAETIPLRLQDTPSYLTFPGEQGHARYGEGVMVGYRHYETAEQPVRYPFGHGLSYTSFATTDLQVRTRGADGATATVTVTNTGERAGRHVVQVYVATAAGPVRRPARELRAFTKVSLAAGESATVAFELDRRAFAYWDVREHDWVVAPGEYSVQIGASAADVLDQRTVTLAGDDLVPELTLQSSVAEWFAHPVAGPQLLAGFVAAMPDGAAEMHEGMLQMIGSMPMRRFAADFGSAVPAAELDRLMAAARAAR
# Tests used:
# Format in all cases: biochemical, Quillaja saponaria
# [1] = Experiment 4-3: screening of glucosidases for deglycosylation with QS-18 in crude bark extract (1 in 2000 dilution) at pH 7 and 30 deg C; details: CBE 1 in 2000 dilution, pH 7, 30 degC, 1 h; % conversion of QS-18 by LCMS/MS
# [2] = Experiment 5-3: screening of additional glucosidases for deglycosylation with QS-18 in treated bark extract (80%) at pH 6 and 35 deg C; details: TBE 80% (QS-21 approx. 4 g/L), pH 6, 35 deg C; UV HPLC
# Protocol: Experiment 5-1 was repeated, replacing CBE with Treated Bark Extract (TBE) at pH 6. TBE was prepared from CBE by PVPP treatment and concentration, to provide TBE with a QS-21 concentration of approximately 4 g/L. TBE was adjusted to pH 6 by dropwise addition of 2M NaOH with stirring.
# [3] = Experiment 5-1: screening of additional glucosidases for deglycosylation with purified QS-18 (0.04 mg/ml) at pH 7.5 and 30 deg C; details: pH 7.5, 30 degrees C, 18 hours, LCMS/MS
# Protocol: The 94 additional genes, together with positive control (DNA encoding SEQ ID No. 262) and negative control, were transformed, expressed, lysed and reacted in the same manner as described above for Experiment 4-1, except the reaction was incubated at 30 degrees C. for 18 hours.
# Samples were analysed by LCMS/MS according to the procedure in Experiment 4-1.
# [4] = Experiment 5-2: screening of additional glucosidases for deglycosylation with QS-18 in crude bark extract (80%) at pH 6 and 35 deg C; details: CBE 80%, pH 6, 35 deg C, 18 hours; UV HPLC
# Method in brief: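 Clarified glucosidase lysate (prepared at pH 6) was incubated with pH 6-adjusted crude bark extract at 35 deg C with shaking for 18 hours. Reactions were quenched with MeCN containing 2% AcOH and hexanophenone, then analysed by UV HPLC.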
# [5] = Experiment 4-2: screening of glucosidases for deglycosylation with purified QS-18 (1 mg/ml) at pH 6 and 30 deg C; details: pH 6, 30 degC, 18 hrs, clarified lysate, LCMS/MS
# Method in brief: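 Clarified lysates of glucosidase-expressing cells in 100 mM potassium phosphate pH 6 were incubated 18 h at 30 °C with QS-18 at 1 mg/ml final. Reactions quenched with MeCN; deglycosylation activity determined by LC-MS/MS.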
# [6] = Experiment 4-4: screening of glucosidases for deglycosylation of QS-18 in crude bark extract (1 in 20 dilution) to QS-21; details: CBE 1 in 20 dilution, pH 6, 25 degC, 18 hours; % conversion of Middle Peak by UV HPLC
# Method in brief: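 Clarified glucosidase lysates were incubated with pH 6 crude bark extract (1 in 20) in potassium phosphate buffer pH 6 for 18 h at 25 °C with shaking, then quenched with MeCN. UV HPLC with MS/MS-supported peak identity; activity is % conversion of the extract's Middle Peak (QS-18 family) toward the QS-21 peak.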
# [7] = Experiment 4-1: screening of glucosidases for deglycosylation with purified QS-18 (0.04 mg/ml) at pH 7.5 and room temperature; details: pH 7.5, room temperature, 20 h, clarified E. coli lysate, QS-18 2150 to QS-21 1988 by LCMS/MS
# Method in brief: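 Candidate glucosidases expressed in E. coli BL21(DE3) (pET24b+, autoinduction, 20 °C for 20 h); clarified lysates in 100 mM potassium phosphate pH 7.5 incubated with QS-18 (0.04 mg/ml final) 20 h at room temperature. Quenched with MeCN, analysed by LC-MS/MS for % conversion; hits >3 S.D. above negative control.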
Molecule,Expt 4-3 % conv [1] [%],Experiment 5-3 % conv [2] [%],Experiment 5-1 % conv [3] [%],Experiment 5-2 % conv [4] [%],Expt 4-2 % conv [5] [%],Expt 4-4 % conv [6] [%],Expt 4-1 % conv [7] [%]
B1,99.7,8.5,98.7,5.5,97.9,68.6,99.5
B2,2.6,–,–,–,36.0,<3,88.5
